According to article PMC2909260:

Target: ILT2 (immunoglobulin-like transcript 2)/CD85j (human (endogenous in peripheral blood CD4+ T cells)) (UniProt Q8NHL6)
UniProt Q8NHL6, sequence (Q8NHL6 24-650): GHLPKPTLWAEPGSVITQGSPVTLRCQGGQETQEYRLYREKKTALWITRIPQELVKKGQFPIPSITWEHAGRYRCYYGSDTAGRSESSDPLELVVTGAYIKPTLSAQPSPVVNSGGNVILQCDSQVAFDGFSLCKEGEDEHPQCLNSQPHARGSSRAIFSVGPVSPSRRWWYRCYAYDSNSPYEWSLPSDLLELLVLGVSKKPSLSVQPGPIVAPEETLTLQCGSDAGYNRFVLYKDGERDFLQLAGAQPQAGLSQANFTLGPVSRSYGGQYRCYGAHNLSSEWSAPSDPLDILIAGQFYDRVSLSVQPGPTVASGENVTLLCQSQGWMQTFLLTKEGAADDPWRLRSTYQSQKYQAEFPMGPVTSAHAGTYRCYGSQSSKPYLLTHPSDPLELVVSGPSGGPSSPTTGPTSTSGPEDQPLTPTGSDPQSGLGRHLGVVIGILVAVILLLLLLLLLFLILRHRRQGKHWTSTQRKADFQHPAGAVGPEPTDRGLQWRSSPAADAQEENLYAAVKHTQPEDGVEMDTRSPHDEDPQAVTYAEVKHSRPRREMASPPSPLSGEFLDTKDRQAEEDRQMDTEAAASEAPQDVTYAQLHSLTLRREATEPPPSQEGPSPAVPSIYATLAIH

% of inhibition of CXCR3 expression (flow cytometry) by sHLA-G on anti-CD3 stimulated CD4+ T cells, with blocking anti-ILT2/CD85j mAb (clone #292319, 1 ug/10^6 cells) added: 31.5%
% of inhibition of CXCR3 expression (flow cytometry) by sHLA-G on anti-CD3 stimulated CD4+ T cells, with isotype-matched control mAb added (reference for the anti-ILT2 blocking): 47.5%
Substance: soluble HLA-G (recombinant HLA-G1/G5 protein) (from UniProt P17693 25-308; P61769 21-119) (complex)
